Experiment [1] has as its target CD38 antigen on the surface of cells (U266 CD38+, MOLP8, Daudi, T-ALL cell lines, activated T cells) (human, UniProt P28907 1-300). Nature of the experiment: cell-based or functional assay.
The target of experiment [2] is T1, CD38-Fc protein (produced by LakePharma) (UniProt P28907 43-300, limits assumed).
T1 construct: Staining reagent for CAR detection by flow cytometry; also called CD38-Fc fusion protein; not shown: Fc part
Nature of the experiment: flow cytometry, CD38-Fc fusion protein staining of purified CD38-deficient T cells transfected with CAR mRNA (FIG. 15). How it is done:
T cells were purified from buffy coat samples and activated using anti-CD3/CD28 coated beads and IL-2. CD38-1 TALEN mRNA was transfected in T cells at day 4 after activation, 6 days later CD38 negative cells were purified by using magnetic separation (Miltenyi). The day after, CAR mRNAs were transfected. The CAR expression and degranulation capacity of CART cells were assessed 24 hours after the transfection. CAR expression and cytotoxic capacity of CART cells were assessed 48 hours after the transfection.
All CARs were detected 24 h after transfection except the 25A10-V3 However, the latter expressed anti-CD38 CAR above the background. The 13F11-V2, 25A10-V1, 25A10-V2 and 28F5-V2 were highly expressed (more than 80%).
In general terms: Flow cytometry measures light scatter and fluorescence of single cells or particles in a stream.

The target of experiment [3] is T1, CD38-Fc protein (produced by LakePharma). Nature of the experiment: flow cytometry, CD38 Fc staining of CD38/TRAC double KO T cells transduced with rLV (FIG. 27C). The procedure:
The parameters are the following: T cells were activated by using Dynabeads CD3-CD28, the culture were made by using medium Xvivo+5% human serum heat inactivated+IL-2 20 ng/ml, a double KO (DKO) CD38-TRAC was performed by using a ratio of 2 μg TALEN mRNA per million of cells (5 million cells/cuvette); the transduction was performed by using rLV from Vectalys(France) at a MOI of 5.
The screening of the 4 CARs 25A10-v1, -v2, 28F5-v1 and -v2 after rLV transduction in DKO T cells has shown that all the CARs were expressed at the T cell surface with a high efficiency (>40%) and 3 of them above 80% (FIG. 27C). RQR8 expression was correlated with CAR expression (FIG. 27A). Most of the T cells were CD38 negative when T cells have been transduced by CD38 CARs (FIG. 27A). It is shown also that 60-85% of T cells endowed with the above 4 CARs were DKO TRAC/CD38 (FIG. 27B).

B1: 25A10-V1 CAR (other)
chain: EVQLQQSGAELVRPGASVKLSCTASGFNIKDSLIHWVKQRPEQGLEWIGWIDPEDDKTKYAPKFQDKATLTADTSSNTAYLQLSTLTSEDTAIYYCVSRYINYYFAYWGQGTTLTVSSGGGGSGGGGSGGGGSDIVMTQSPSSLTVTAGEKVTMSCKSSQSLLHSGNQRNYLTWYQQKPGQPPKLLIYWASTRESGVPDRFTGSGSGTDFTLTISSVQAEDLAVYYCQNDYDYPYTFGGGTKLEIKGLAVSTISSFFPPGYQIYIWAPLAGTCGVLLLSLVITLYCKRGRKKLLYIFKQPFMRPVQTTQEEDGCSCRFPEEEEGGCELRVKFSRSADAPAYQQGQNQLYNELNLGRREEYDVLDKRRGRDPEMGGKPRRKNPQEGLYNELQKDKMAEAYSEIGMKGERRRGKGHDGLYQGLSTATKDTYDALHMQALPPR
notes: signal peptide left out here
In the case of B1, the “ratio of degranulation against U266 CD38+ and U266 CD38-” value (“ratio of degranulation” for short) in experiment [1] was over 2 ratio. The “% of T cells stained by CD38-Fc (CAR expression)” value (shortened to “% of T cells stained by CD38-Fc”) in experiment [2] was over 80%; in experiment [3], over 40%.

B2: 13F11-V3 CAR (other)
chain: QIQLVQSGPELKKPGETVKISCKASGYTFKKYGMNWVKQAPGKGLKWMGWINTNTGEPTYAEEFKGRFAFSLETSASTAYLQINNLKNEDTATYFCARWYYGSTPSSYTMDYWGQGTSVTVSSGGGGSGGGGSGGGGSETTVTQSPASLSVATGEKVTIRCITSTDIDDDMNWYQQKPGEPPKVLISEGNTLRPGVPSRFSSSGYGTDFVFTIENTLSEDVADYYCLQSNNMPYTFGGGTKLEIKEPKSPDKTHTCPPCPAPPVAGPSVFLFPPKPKDTLMIARTPEVTCVVVDVSHEDPEVKFNWYVDGVEVHNAKTKPREEQYNSTYRVVSVLTVLHQDWLNGKEYKCKVSNKALPAPIEKTISKAKGQPREPQVYTLPPSRDELTKNQVSLTCLVKGFYPSDIAVEWESNGQPENNYKTTPPVLDSDGSFFLYSKLTVDKSRWQQGNVFSCSVMHEALHNHYTQKSLSLSPGKIYIWAPLAGTCGVLLLSLVITLYCKRGRKKLLYIFKQPFMRPVQTTQEEDGCSCRFPEEEEGGCELRVKFSRSADAPAYQQGQNQLYNELNLGRREEYDVLDKRRGRDPEMGGKPRRKNPQEGLYNELQKDKMAEAYSEIGMKGERRRGKGHDGLYQGLSTATKDTYDALHMQALPPR
With B2, in experiment [1], the “ratio of degranulation” value was over 2 ratio.

B3: 16B5-V1 CAR (other)
chain: QAYLQQSGAELVRSGASVKMSCKASGYTFTSYNLHWVKQTPGQGLEWIGYIYPGNGGTNYNQKFKGKATLTADTSSSTAYMQISSLTSEDSAVYFCARGGIYYYGSSLDYWGQGTTLTVSSGGGGSGGGGSGGGGSNIVLTQSPASLAVSLGQRATISCRASESVDNYGTTFMYWYQQKPGQPPKLLIYLASNLESGVPARFSGSGSGTDFTLTIDPVEADDAATYYCQQNKEDPWTFGGGTKLEIKGLAVSTISSFFPPGYQIYIWAPLAGTCGVLLLSLVITLYCKRGRKKLLYIFKQPFMRPVQTTQEEDGCSCRFPEEEEGGCELRVKFSRSADAPAYQQGQNQLYNELNLGRREEYDVLDKRRGRDPEMGGKPRRKNPQEGLYNELQKDKMAEAYSEIGMKGERRRGKGHDGLYQGLSTATKDTYDALHMQALPPR
Turning to B3, in experiment [1], the “ratio of degranulation” value was over 2 ratio.

B4: 13F11-V1 CAR (other)
chain: QIQLVQSGPELKKPGETVKISCKASGYTFKKYGMNWVKQAPGKGLKWMGWINTNTGEPTYAEEFKGRFAFSLETSASTAYLQINNLKNEDTATYFCARWYYGSTPSSYTMDYWGQGTSVTVSSGGGGSGGGGSGGGGSETTVTQSPASLSVATGEKVTIRCITSTDIDDDMNWYQQKPGEPPKVLISEGNTLRPGVPSRFSSSGYGTDFVFTIENTLSEDVADYYCLQSNNMPYTFGGGTKLEIKGLAVSTISSFFPPGYQIYIWAPLAGTCGVLLLSLVITLYCKRGRKKLLYIFKQPFMRPVQTTQEEDGCSCRFPEEEEGGCELRVKFSRSADAPAYQQGQNQLYNELNLGRREEYDVLDKRRGRDPEMGGKPRRKNPQEGLYNELQKDKMAEAYSEIGMKGERRRGKGHDGLYQGLSTATKDTYDALHMQALPPR
As for B4, the “ratio of degranulation” value in experiment [1] is over 2 ratio.

B5: GMB005-V1 CAR (other)
chain: EVQLLESGGGLVQPGGSLRLSCAVSGFTFNSFAMSWVRQAPGKGLEWVSAISGSGGGTYYADSVKGRFTISRDNSKNTLYLQMNSLRAEDTAVYFCAKDKILWFGEPVFDYWGQGTLVTVSSASGGGGSGGGGSGGGGSEIVLTQSPATLSLSPGERATLSCRASQSVSSYLAWYQQKPGQAPRLLIYDASNRATGIPARFSGSGSGTDFTLTISSLEPEDFAVYYCQQRSNWPPTFGQGTKVEIKGLAVSTISSFFPPGYQIYIWAPLAGTCGVLLLSLVITLYCKRGRKKLLYIFKQPFMRPVQTTQEEDGCSCRFPEEEEGGCELRVKFSRSADAPAYQQGQNQLYNELNLGRREEYDVLDKRRGRDPEMGGKPRRKNPQEGLYNELQKDKMAEAYSEIGMKGERRRGKGHDGLYQGLSTATKDTYDALHMQALPPR
For B5, the “ratio of degranulation” value in experiment [1] was over 2 ratio.

B6: 16B5-V2 CAR (other)
chain: QAYLQQSGAELVRSGASVKMSCKASGYTFTSYNLHWVKQTPGQGLEWIGYIYPGNGGTNYNQKFKGKATLTADTSSSTAYMQISSLTSEDSAVYFCARGGIYYYGSSLDYWGQGTTLTVSSGGGGSGGGGSGGGGSNIVLTQSPASLAVSLGQRATISCRASESVDNYGTTFMYWYQQKPGQPPKLLIYLASNLESGVPARFSGSGSGTDFTLTIDPVEADDAATYYCQQNKEDPWTFGGGTKLEIKTTTPAPRPPTPAPTIASQPLSLRPEACRPAAGGAVHTRGLDFACDIYIWAPLAGTCGVLLLSLVITLYCKRGRKKLLYIFKQPFMRPVQTTQEEDGCSCRFPEEEEGGCELRVKFSRSADAPAYQQGQNQLYNELNLGRREEYDVLDKRRGRDPEMGGKPRRKNPQEGLYNELQKDKMAEAYSEIGMKGERRRGKGHDGLYQGLSTATKDTYDALHMQALPPR
As to B6, the “ratio of degranulation” value in experiment [1] was over 2 ratio.

B7: 25A10-V2 CAR (other)
chain: EVQLQQSGAELVRPGASVKLSCTASGFNIKDSLIHWVKQRPEQGLEWIGWIDPEDDKTKYAPKFQDKATLTADTSSNTAYLQLSTLTSEDTAIYYCVSRYINYYFAYWGQGTTLTVSSGGGGSGGGGSGGGGSDIVMTQSPSSLTVTAGEKVTMSCKSSQSLLHSGNQRNYLTWYQQKPGQPPKLLIYWASTRESGVPDRFTGSGSGTDFTLTISSVQAEDLAVYYCQNDYDYPYTFGGGTKLEIKTTTPAPRPPTPAPTIASQPLSLRPEACRPAAGGAVHTRGLDFACDIYIWAPLAGTCGVLLLSLVITLYCKRGRKKLLYIFKQPFMRPVQTTQEEDGCSCRFPEEEEGGCELRVKFSRSADAPAYQQGQNQLYNELNLGRREEYDVLDKRRGRDPEMGGKPRRKNPQEGLYNELQKDKMAEAYSEIGMKGERRRGKGHDGLYQGLSTATKDTYDALHMQALPPR
notes: Chimeric antigen receptor on T cells; signal peptide left out here
In the case of B7, the “% of T cells stained by CD38-Fc” value in experiment [2] was over 80%; in experiment [3], over 40%.

B8: 13F11-V2 CAR (other)
chain: QIQLVQSGPELKKPGETVKISCKASGYTFKKYGMNWVKQAPGKGLKWMGWINTNTGEPTYAEEFKGRFAFSLETSASTAYLQINNLKNEDTATYFCARWYYGSTPSSYTMDYWGQGTSVTVSSGGGGSGGGGSGGGGSETTVTQSPASLSVATGEKVTIRCITSTDIDDDMNWYQQKPGEPPKVLISEGNTLRPGVPSRFSSSGYGTDFVFTIENTLSEDVADYYCLQSNNMPYTFGGGTKLEIKTTTPAPRPPTPAPTIASQPLSLRPEACRPAAGGAVHTRGLDFACDIYIWAPLAGTCGVLLLSLVITLYCKRGRKKLLYIFKQPFMRPVQTTQEEDGCSCRFPEEEEGGCELRVKFSRSADAPAYQQGQNQLYNELNLGRREEYDVLDKRRGRDPEMGGKPRRKNPQEGLYNELQKDKMAEAYSEIGMKGERRRGKGHDGLYQGLSTATKDTYDALHMQALPPR
notes: as for B7
Consider B8, for which the “% of T cells stained by CD38-Fc” value in experiment [2] is over 80%.

B9: 28F5-V1 CAR (other)
chain: QIQLVQSGPELKKPGETVKISCKASGYTFTKYGMNWVKQTPGKGLKWMGWINTNSGEPTYAEEFKGRFAFSLETSASTAYLQINNLKNEDTATYFCARGAYYRYDGEVSYYAMDYWGQGTSVTVSSGGGGSGGGGSGGGGSQIILTQSPAIMSASLGERVTMTCTATSSLSSSYLHWYQQKPGSSPKLWIYSTSHLASGVPARFSGGGSGTSYSLTISSMEAEDAATYYCHQYHLSPYTFGGGTKLEIKGLAVSTISSFFPPGYQIYIWAPLAGTCGVLLLSLVITLYCKRGRKKLLYIFKQPFMRPVQTTQEEDGCSCRFPEEEEGGCELRVKFSRSADAPAYQQGQNQLYNELNLGRREEYDVLDKRRGRDPEMGGKPRRKNPQEGLYNELQKDKMAEAYSEIGMKGERRRGKGHDGLYQGLSTATKDTYDALHMQALPPR
notes: as for B7
For the molecule B9, the “ratio of degranulation” value in experiment [1] is over 2 ratio. For the same molecule, the “% of T cells stained by CD38-Fc” value in experiment [3] was over 40%.

The values above are taken from US20180236053A1 (CELLECTIS, published 2018).
